For one molecule, activity results are on record in US20220220508, “ENGINEERED CASX SYSTEMS” (Scribe Therapeutics Inc., published 2022).

The target in the data set is CasX2 (StX2, wild-type reference CasX) (Planctomycetes). In words: cleavage_in_vitro; kcleave; TTC PAM. To be noted: tags: N-terminal SV40 NLS, C-terminal NLS, TEV site and twin Strep tag; label: fluorescent. As for the experimental part: In vitro cleavage assays were performed essentially as described in Example 19, using CasX 2 (SED ID NO:2), CasX 119, and CasX 438 complexed with single guide 174 with spacer 7.37 targeted against B2M. Fluorescently labeled dsDNA targets that would be complementary with a 7.37 spacer and either a ITC, CTC, CTC, or ATC PAM were used (The DNA sequences used to generate each dsDNA substrate are shown in Table 29. The PAM sequences for each are bolded. TS—target strand. NTS—Non-target strand). Target DNA was incubated with a 20-fold excess of the indicated RNP and the amount of cleaved target was determined at the indicated. time points. The monophasic fit of the combined replicates is shown. During the assay, samples were taken at 0.25, 0.5, 1, 2, 5, 10, 30, and 60 minutes. Gels were imaged with an Amersham Typhoon and quantified using the IQTL 8,2 software. Apparent first-order rate constants for non-target strand cleavage (kcleave) were determined for each Casx:sgRNA complex on each target. Rate constants for targets with non-TTC PAM were compared to the TIC PAM target to determine whether the relative preference for each PAM was altered for a given CasX variant. The results are shown in FIG. 73 (the monophasic fit of the combined replicates is shown) and Table 30. […]

B1: sgRNA 174.7.37 ; 7.37 TTC PAM target (ssRNA ; dsDNA)
RNA: ACUGGCGCUUUUAUCUGAUUACUUUGAGAGCCAUCACCAGCGACUAUGUCGUAGUGGGUAAAGCUCCCUCUUCGGAGGGAGCAUCAAAGGGCCGAGAUGUCUCGCUCCG
DNA 1: TGAAGCTGACAGCATTCGGGCCGAGATGTCTCGCTCCGTGGCCTTAGCTGTGCTCGCGCT
DNA 2: AGCGCGAGCACAGCTAAGGCCACGGAGCGAGACATCTCGGCCCGAATGCTGTCAGCTTCA
As to B1, the activity turned out to be 0.267 min⁻¹.
